Results published in US20260022186A1.
Positions count from the first letter of the chain named.

T1: human NT5E expressed on MDA-MB-231 cells (human) (UniProt P21589)
T1 sequence (looked up): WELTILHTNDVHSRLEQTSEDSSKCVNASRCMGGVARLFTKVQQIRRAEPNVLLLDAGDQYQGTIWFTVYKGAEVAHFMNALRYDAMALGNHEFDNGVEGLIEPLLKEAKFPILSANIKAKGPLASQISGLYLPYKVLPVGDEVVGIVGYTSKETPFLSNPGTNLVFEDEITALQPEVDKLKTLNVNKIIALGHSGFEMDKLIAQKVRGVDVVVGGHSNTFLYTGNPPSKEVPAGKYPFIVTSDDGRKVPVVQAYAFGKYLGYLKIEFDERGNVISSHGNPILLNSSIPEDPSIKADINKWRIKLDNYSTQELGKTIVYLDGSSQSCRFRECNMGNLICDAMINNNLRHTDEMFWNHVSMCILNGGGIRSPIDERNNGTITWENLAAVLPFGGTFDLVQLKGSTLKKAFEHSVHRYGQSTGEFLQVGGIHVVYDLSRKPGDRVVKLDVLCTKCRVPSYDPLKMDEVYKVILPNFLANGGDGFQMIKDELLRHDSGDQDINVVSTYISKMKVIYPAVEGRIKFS

T2: murine NT5E expressed on 4T1 cells (murine) (UniProt Q61503)
T2 sequence (looked up): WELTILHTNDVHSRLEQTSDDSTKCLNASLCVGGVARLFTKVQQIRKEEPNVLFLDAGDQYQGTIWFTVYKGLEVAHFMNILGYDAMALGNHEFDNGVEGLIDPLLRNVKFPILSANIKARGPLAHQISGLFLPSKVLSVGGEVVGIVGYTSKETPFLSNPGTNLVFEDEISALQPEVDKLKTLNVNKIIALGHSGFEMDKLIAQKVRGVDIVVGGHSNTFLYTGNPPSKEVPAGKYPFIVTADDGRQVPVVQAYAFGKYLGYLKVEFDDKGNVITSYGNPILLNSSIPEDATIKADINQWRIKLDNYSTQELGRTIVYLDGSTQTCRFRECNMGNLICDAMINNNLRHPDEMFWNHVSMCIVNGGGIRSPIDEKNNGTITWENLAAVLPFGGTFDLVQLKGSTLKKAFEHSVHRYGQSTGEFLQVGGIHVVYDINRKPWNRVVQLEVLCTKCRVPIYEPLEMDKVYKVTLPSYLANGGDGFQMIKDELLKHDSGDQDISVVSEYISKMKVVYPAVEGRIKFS

B1: 1789 AM39 IgG (antibody, V domains shown)
VH: EVQLVESGGGLVQPGGSLRLSCAASGFNVSYSSIHWVRQAPGKGLEWVASIRGAGSDTRYADSVKGRFTISADTSKNTAYLQMNSLRAEDTAVYYCARNYWGWYPFYYFAFDYWGQGTLVTVSS
VL: DIQMTQSPSSLSASVGDRVTITCRASQSVSSAVAWYQQKPGKAPKLLIYSASSLYSGVPSRFSGSRSGTDFTLTISSLQPEDFATYYCQQGWDYPITFGQGTKVEIKR
B2: 1789 AM32 IgG (antibody, V domains shown)
VH: B1 VH with S50R, A54N, G55E, S56G, R59Y
VL: B1 VL
B3: 1789 AM42 IgG (antibody, V domains shown)
VH: B1 VH with S50K, A54G, G55H, S56Q, R59H
VL: B1 VL

What was measured:
[1] = molecular target: T1, human NT5E expressed on MDA-MB-231 cells (human); experiment: cell-based or functional assay
[2] = molecular target: T2, murine NT5E expressed on 4T1 cells (murine); experiment: cell-based or functional assay

| IC50 of inhibition of NT5E activity on MDA-MB-231 cells, ATP [1] [nM] | IC50 of inhibition of NT5E activity on MDA-MB-231 cells, no ATP [1] [nM] | IC50 of inhibition of NT5E activity on 4T1 cells, ATP [2] [nM] | Binder |
| --- | --- | --- | --- |
| 2.5 | 6.9 | 12.7 | B1 |
| 2.3 | 5.6 | 9.1 | B2 |
| 1.9 | 5.4 | 8.8 | B3 |
